Test results as given in patent US20130129739A1 (Bayer, published 2013).
“And” between values parts separate entries of the source, which are not always exact repeats. Identical values can stand only once.

Columns and labels:
[1] = target: T1, extracellular domain of human PRLR (monomeric, soluble) (human, UniProt P16471 25-234); experiment: SPR (Biacore), IgG1 directly immobilized, monomeric human PRLR ECD from HEK293 as analyte
T1 construct: also called ECD-PRLR; ECD of PRLR
T1 sequence: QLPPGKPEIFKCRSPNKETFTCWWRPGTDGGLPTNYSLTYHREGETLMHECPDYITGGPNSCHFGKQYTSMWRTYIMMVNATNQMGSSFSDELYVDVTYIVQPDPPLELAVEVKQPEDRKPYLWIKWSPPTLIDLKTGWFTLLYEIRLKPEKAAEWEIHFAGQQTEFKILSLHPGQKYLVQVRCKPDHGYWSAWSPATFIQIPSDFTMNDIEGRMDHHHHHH

[2] = target: T2, human prolactin receptor (PRLR) on cells (human, UniProt P16471 25-622); experiment: FACS on human breast cancer cell line T47D, IgG1
T2 construct: whole, on cells; also called human PRLR; hPRLR
T2 sequence (looked up): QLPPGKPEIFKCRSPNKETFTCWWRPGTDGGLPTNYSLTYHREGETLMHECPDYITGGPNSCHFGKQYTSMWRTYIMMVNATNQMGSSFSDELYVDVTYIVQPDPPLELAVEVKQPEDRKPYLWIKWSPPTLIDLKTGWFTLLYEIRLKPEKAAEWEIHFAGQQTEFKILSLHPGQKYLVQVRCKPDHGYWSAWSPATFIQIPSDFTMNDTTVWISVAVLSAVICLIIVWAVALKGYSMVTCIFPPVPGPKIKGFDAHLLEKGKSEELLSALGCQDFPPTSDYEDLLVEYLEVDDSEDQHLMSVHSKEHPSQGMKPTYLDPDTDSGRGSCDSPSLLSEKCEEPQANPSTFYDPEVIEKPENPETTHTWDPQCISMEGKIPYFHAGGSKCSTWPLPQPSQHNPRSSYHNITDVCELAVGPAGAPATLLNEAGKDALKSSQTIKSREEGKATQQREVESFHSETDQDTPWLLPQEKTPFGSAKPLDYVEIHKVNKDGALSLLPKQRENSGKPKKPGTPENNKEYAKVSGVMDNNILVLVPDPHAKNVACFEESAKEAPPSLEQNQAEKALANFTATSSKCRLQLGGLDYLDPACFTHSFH

[3] = target: T3, rat prolactin receptor (PRLR) on Nb2 lymphoma cells (rat, UniProt P05710 20-610); experiment: FACS on rat lymphoma cell line Nb2, IgG1
T3 construct: whole, on cells; also called rat PRLR
T3 sequence (looked up): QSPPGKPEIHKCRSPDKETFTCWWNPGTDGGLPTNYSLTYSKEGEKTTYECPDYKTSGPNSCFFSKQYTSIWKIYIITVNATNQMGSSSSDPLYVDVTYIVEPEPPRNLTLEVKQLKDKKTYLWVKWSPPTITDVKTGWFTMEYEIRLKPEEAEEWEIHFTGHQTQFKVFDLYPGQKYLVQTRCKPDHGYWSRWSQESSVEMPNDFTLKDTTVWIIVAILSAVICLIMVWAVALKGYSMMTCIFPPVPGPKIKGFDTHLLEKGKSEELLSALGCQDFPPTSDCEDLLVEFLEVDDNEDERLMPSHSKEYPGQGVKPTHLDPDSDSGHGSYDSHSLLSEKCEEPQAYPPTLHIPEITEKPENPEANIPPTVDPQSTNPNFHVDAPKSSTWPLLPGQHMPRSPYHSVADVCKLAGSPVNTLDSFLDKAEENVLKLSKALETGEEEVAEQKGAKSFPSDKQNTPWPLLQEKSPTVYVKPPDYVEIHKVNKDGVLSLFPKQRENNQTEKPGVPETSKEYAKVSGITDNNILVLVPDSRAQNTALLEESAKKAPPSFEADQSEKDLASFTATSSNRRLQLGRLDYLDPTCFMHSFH

[4] = target: T4, murine prolactin receptor (PRLR) on cells (mouse, UniProt Q08501 20-608); experiment: cell-based or functional assay
T4 sequence (looked up): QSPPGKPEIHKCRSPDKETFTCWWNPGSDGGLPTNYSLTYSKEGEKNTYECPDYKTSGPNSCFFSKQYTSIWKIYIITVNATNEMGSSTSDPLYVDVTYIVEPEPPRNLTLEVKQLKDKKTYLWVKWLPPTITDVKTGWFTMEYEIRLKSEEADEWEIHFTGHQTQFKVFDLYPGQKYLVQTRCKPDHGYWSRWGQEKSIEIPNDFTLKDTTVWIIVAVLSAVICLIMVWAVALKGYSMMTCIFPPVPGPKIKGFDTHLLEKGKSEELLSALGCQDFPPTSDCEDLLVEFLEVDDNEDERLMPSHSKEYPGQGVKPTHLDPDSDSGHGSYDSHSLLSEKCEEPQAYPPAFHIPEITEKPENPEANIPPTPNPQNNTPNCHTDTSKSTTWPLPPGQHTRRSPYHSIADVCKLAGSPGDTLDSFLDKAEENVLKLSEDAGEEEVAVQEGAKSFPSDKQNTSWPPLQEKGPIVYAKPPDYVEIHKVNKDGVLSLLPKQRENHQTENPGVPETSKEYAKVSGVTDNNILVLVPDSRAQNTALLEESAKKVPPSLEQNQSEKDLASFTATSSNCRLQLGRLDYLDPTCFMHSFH

[5] = target: T3, rat prolactin receptor (PRLR) on Nb2 …; experiment: cell-based or functional assay
[6] = target: T2, human prolactin receptor (PRLR) on cells; experiment: cell-based or functional assay
[7] = target: T4, murine prolactin receptor (PRLR) on …; experiment: flow cytometry on HEK293 cells stably expressing murine PRLR, PE anti-human IgG, fixed 0.37 µg/ml IgG
Description: In order to determine the binding characteristics of the anti-PRLR antibodies on mouse and human PRLR expressed on cells, binding was tested by flow cytometry on HEK293 cells stably expressing the human and murine PRLR, respectively. The cells as well as the parental HEK293 cell line without PRLR were harvested, centrifuged and resuspended at approximately 5×10⁶ cells/ml in 1×PBS containing 2% FBS and 0.1% sodium azide (FACS buffer). The antibodies 005-C04, 001-E06 and HE06.642 were diluted to 2-fold final concentration in FACS buffer and added to appropriate sample wells (50 μl/well). For secondary antibody and autofluorescence controls, 50 μl FACS buffer was added to appropriate wells. 50 μl of cell suspension was added to each sample well. Samples were incubated at 4° C. for one hour, washed twice with cold FACS buffer and resuspended in FACS buffer containing PE-conjugated goat anti-human IgG at a 1:100 dilution. Following a 30 min incubation at 4° C., cells were washed twice with cold FACS buffer, resuspended in FACS buffer containing […] propidium iodide (Invitrogen, San Diego, Calif.) and analyzed by flow cytometry. […] This observation is consistent with the finding reported in example 9 about the missing efficacy of HE06.642 in the murine PRLR-dependent luciferase reporter gene assay. […]

Binder	Kd [1] [nM]	koff [1] [s⁻¹]	EC50 [2] [nM]	binding result [3]	IC50, prolactin-activated luciferase reporter gene activity, HEK293 cells with mPRLR [4]	IC50, inhibition of prolactin-induced rat lymphoma cell proliferation (NB2 cells) [5]	EC50 [3] [nM]	IC50, inhibition of prolactin-activated Ba/F cell proliferation (human PRLR) [6]	binding result [7]	IC50, inhibition of prolactin-activated Ba/F cell proliferation (murine PRLR) [4]	IC50, prolactin-activated luciferase reporter gene activity, HEK293 cells with hPRLR [6]
006-H07 (antibody, V domains shown, Tested as human IgG1) VH: QVELLESGGGLVQPGGSLRLSCAASGFTFEDHGMSWVRQAPGKGLEWVSLISWDDGSNKYYADSVKGRFTISRDNSKNTLYLQMNSLRAEDTAVYYCATSLRATAFDTWGQGTLVTVSS VL: not shown	2	0.0013	0.4	no binding	–	–	–	–	–	–	–
XHA06.983 (antibody, V domains shown, Novartis antibody (WO2008/022295)) VH: DVQLVESGGGLVQPGGSRKLSCAASGFAFSSFGMQWVRQAPEKGLEWVAYISSGSSTIYYADTVKGRFTISRDNPKNTLFLQMTSLRSEDTAMYYCVRSGRDYWGQGTSVTVSS VL: SIVMTQTPKFLLVSAGDRVTITCKASQGVSNDVAWFQQKPGQSPKLLIYSASTRYTGVPDRLTGSGYGTDFTFTINTVQAEDLAVYFCQQDYTSPTFGGGTKLEIKR	0.2	0.00017	0.3	no binding	–	–	–	–	–	–	–
XHA06.642 (antibody, V domains shown, Novartis antibody (WO2008/022295)) VH: EVQLVESGGDLVKPGGSLKLSCAVSGFTFSSYGMSWVRQTPDKRLEWVATVSSGGTYTYYPDSVKGRFTISRDNAKNTLYLQMSSLKSEDSAMYYCARHRGNYYATYYYAMDYWGQGTSVTVSS VL: DIVLTQSPASLAVSLGQGATISCRASKSVSTSGYTYMHWYQQKPGQPPKLLIYLASNLESGVPARFSGSGSGTDFTLNIHPVEEEDAATYYCQHSGELPPSFGGGTKLEIKR	1.2	0.00013	1.5	–	> 50 mg/ml and > 333 nM	10 µg/ml and 67 nM	1.1	–	–	–	–
002-H08 (antibody, V domains shown, Tested as human IgG1) VH: QVELLESGGGLVQPGGSLRLSCAASGFTFSSYGMHWVRQAPGKGLEWVSGVSWNGSRTHYADSVKGRLTISRDNSKNTLYLQMNSLRAEDTAVYYCARGGDFDYWGQGTLVTVSS VL: QSVLTQPPSASGTPGQRVTISCSGSSSNIGSNDVYWYQQLPGTAPKLLIYDNNKRPSGVPDRFSGSKSGTSASLAISGLRSEDEADYYCQSYDSSLSGSWVFGGGTKLTVLG	1.8	0.0002	–	–	–	–	–	4.8 nM and 0.72 µg/ml	–	–	–
HE06.642 (antibody, V domains shown, Human Engineered Novartis antibody (WO2008/022295); tested as human IgG1) VH: EVQLVESGGGLVQPGGSLRLSCAVSGFTFSSYGMSWVRQAPGKGLEWVATVSSGGTYTYYPDSVKGRFTISRDNSKNTLYLQMNSLRAEDTAVYYCARHRGNYYATYYYAMDYWGQGTLVTVSS VL: DIVLTQSPDSLAVSLGERATINCKASKSVSTSGYTYMHWYQQKPGQPPKLLIYLASNRESGVPDRFSGSGSGTDFTLTISPVQAEDVATYYCQHSGELPPSFGQGTKLEIKR	0.3	0.00032	1.8	–	–	–	0.9	0.34 µg/ml and 2.2 nM	no binding (tested: 0.37 µg/ml)	> 30 mg/ml and > 200 nM	0.63 mg/ml and 4.2 nM
005-C04 (antibody, V domains shown, Tested as human IgG1; also called IgG1 005-C04; 005-004) VH: EVQLLESGGGLVQPGGSLRLSCAASGFTFSSYWMHWVRQAPGKGLEWVSDISSASSYTNYADSVKGRFTISRDNSKNTLYLQMNSLRAEDTAVYYCARGLDARRMDYWGQGTLVTVSS VL: QSVLTQPPSASGTPGQRVTISCTGSSSNIGAGYVVHWYQQLPGTAPKLLIYRNNQRPSGVPDRFSGSKSGTSASLAISGLRSEDEADYYCAAWDDSLNGWLFGGGTKLTVLG	12.2	0.0093	1.9	–	–	–	0.5	1.29 µg/ml and 8.6 nM	–	–	–
006-H08 (antibody, V domains shown, Tested as human IgG1; also called IgG1 006-H08) VH: not shown VL: DIVLTQPPSASGTPGQRVTISCSGSNSNIGSNPVNWYQQLPGTAPKLLIYDNNKRPSGVPDRFSGSKSGTSASLAISGLRSEDEADYYCQSYDTGLSGWVFGGGTKLTVLG	0.7	0.00024	1.3	no binding	–	–	–	0.15 µg/ml and 1 nM	–	–	0.83 mg/ml and 5.5 nM
002-H06 (antibody, V domains shown, Tested as human IgG1) VH: QVELLESGGGLVQPGGSLRLSCAASGFTFANYGLTWVRQAPGKGLEWVAVISFNGDKKYYADSVKGRFTISRDNSKNTLYLQMNSLRAEDTAVYYCASPLESPVAFDIWGQGTLVTVSS VL: QSVLTQPPSASGTPGQRVTISCSGSYSNIGGNPVNWYQQLPGTAPKLLIYGNSNRPSGVPDRFSGSKSGTSASLAISGLRSEDEADYYCQSYDSSLSGSVFGGGTKLTVLG	2.7	0.00054	–	–	–	–	–	0.54 µg/ml and 3.6 nM	–	–	–
001-E06 (antibody, V domains shown, Tested as human IgG1) VH: QVELLESGGGLVQPGGSLRLSCAASGFTFSSYWMSWVRQAPGKGLEWVSSVSDTGTDTHYADSVKGRFTISRDNSKNTLYLQMNSLRAEDTAVYYCAKTPLAYSSGWYYFDYWGQGTLVTVSS VL: DIVLTQPPSASGTPGQRVTISCSGSSSNIGSNTVNWYQQLPGTAPKLLIYRNYQRPSGVPDRFSGSKSGTSASLAISGLRSEDEADYYCQSYDSSLSGSVFGGGTKLTVLG	15.8	0.0048	1.8	–	–	–	1.2	–	–	–	–
